Source: the DeepSol protein solubility set

test: soluble on expression in E. coli; label from the status in PepcDB or PDB records

Question: For “MKFKYLSTPLLFSALLFSACSSVNVGANLKSLIKETTDQDLDLSESVSTSEGKKNLISSLKKSYETNPSKTASVLLNAWKQSVENGQIESSETNWTNWKFP”, which “soluble on expression in E. coli” value is on record?
Answer: The value was “soluble”.

Question: With “MGSDKIHHHHHHMLKNDRWITEQAAAGMLEPFQAGLIRHLDPEQHQRPVLSFGCSSFGYDLRLSAKEFLIFRHVPGTVMNPKRFNPANLESTPLHQDEDGEYFILPAHSYGLGVALEKMKVPSNITVICLGKSTYARLGIIVNTTPAEASWEGHLTLEFSNSSGADCRIYANEGICQLLFFEGDPCDTTYSDRQGKYQHQPERVTLARI” as the sequence, how does the “soluble on expression in E. coli” value read?
Answer: Its value is “not soluble”.

Question: With “MKTNSEELTVFVQVVESGSFSRAAEQLAMANSAVSRIVKRLEEKLGVNLLNRTTRQLSLTEEGAQYFRRAQRILQEMAAAETEMLAVHEIPQGVLSVDSAMPMVLHLLAPLAAKFNERYPHIRLSLVSSEGYINLIERKVDIALRAGELDDSGLRARHLFDSRFRVIASPEYLAKHGTPQSTEELAGHQCLGFTEPGSLNTWAVLDAQGNPYKISPHFTASSGEILRSLCLSGCGIVCLSDFLVDNDIAEGKLIPLLAEQTSDKTHPFNAVYYSDKAVNLRLRVFLDFLVEELGNNLCGKHHHHHH” as the sequence, how does the “soluble on expression in E. coli” value read?
Answer: Its value is “soluble”.

Question: Which “soluble on expression in E. coli” value does the source give for “MRDTFPSLQAQHLHGIDEQALRPAFSTHKPRILILYGSLREVSYSRLLAFEAGRLLERLGCEVRIFDPKGLPLPDETPASHAKVQELRDLSQWSEGQVWVSPERHGAMTGIMKSQIDWIPLAVGSVRPTQGKTLAVMEVSGGSQSFNAVNQMRILGRWMRMITIPNQSSVARAFQEFDEDGRMRPSSYYDRVVDVCEELVKFTLLTRDASAYLTDRYSERKEQAAELEKRVSLKS” here?
Answer: Its value is “not soluble”.

Question: With “MAISDWPEAERPREKLIEKGAAALSDAELLAIFLRTGITGVSAVELARKLLTHFGSLTKLCAASLHEFSELPGMGPAKFAQLQAVMEMAKRALAEELKNGDIMDSPQSVRNYLCLSLKGKPYEVFVGIFLDARHRTIVTEELFNGTLTQASVYPREVVKRALYHNAAAMIFAHNHPSGIAEPSTADEILTQSLKQALALVDVKVLDHFVIGSSEVVSFAERGLI” as the sequence, how does the “soluble on expression in E. coli” value read?
Answer: The value was “not soluble”.

Question: Which “soluble on expression in E. coli” value does the source give for “MSLDINQIALHQLIKRDEQNLELVLRDSLLEPTETVVEMVAELHRVYSAKNKAYGLFSEESELAQTLRLQRQGEEDFLAFSRAATGRLRDELAKYPFADGGFVLFCHYRYLAVEYLLVAVLSNLSSMRVNENLDINPTHYLDINHADIVARIDLTEWETNPESTRYLTFLKGRVGRKVADFFMDFLGASEGLNAKAQNRGLLQAVDDFTAEAQLDKAERQNVRQQVYSYCNEQLQAGEEIELKSLSKELAGVSEVSFTEFAAEKGYELEESFPADRSTLRQLTKFAGSGGGLTINFDAMLLGERIFWDPATDTLTIKGTPPNLRDQLQRRTSGGNLEHHHHHH” here?
Answer: The value was “not soluble”.

Question: Which “soluble on expression in E. coli” value does the source give for “MSLAETWDMPLAYSGSNFHSVTAAEFGNCVTTGTGGEIEIVTHPSGSLFKGADIKRAVQTGQAPIGERLLSGHQNENALFGFDSVPFLATSFDDADKLWKAAKEPLSALLAEQNLTLLYSVPWPPQGLYFKNEVNAVADMKGIKFRSYNNATSRLAELTGMLPVTIEAAEISQAFATGVADSMISSGSTGYDRKVWESLNYFYEVDAWLPRNYVFVNSDVWSGVSDQNKNVIQACAGLAEYAGNWRSKEYTGFTLQGLRDGGMTVGPASDQLVGELKEIGVTMTSEWLEAAGDQGKAIVDAFKAEGHHHHHH” here?
Answer: Its value is “not soluble”.

Question: With “MGSDKIHHHHHHMKYVVVSGGVISGIGKGVLASSTGMLMKTLGLKVTSIKIDPYMNIDAGTMSPLEHGECFVLDDGGETDLDLGNYERYLGVTLTKDHNITTGKIYSHVIAKERKGDYLGKTVQIVPHLTNAIQDWIERVAKIPVDDTGMEPDVCIIELGGTVGDIESAPFVEALRQFQFKVGKENFALIHVSLVPVIHGEQKTKPTQAAIKGLRSLGLVPDMIACRCSETLDKPTIDKIAMFCHVGPEQVVNVHDVNSTYHVPLLLLEQKMIDYLHARLKLDEISLTEEEKQRGLELLSKWKATTGNFDESMETVKIALVGKYTNLKDSYLSVIKALEHSSMKCRRKLDIKWVEATDLEPEAQESNKTKFHEAWNMVSTADGILIPGGFGVRGTEGMVLAARWARENHIPFLGVCLGLQIATIEFTRSVLGRKDSHSAEFYPDIDEKNHVVVFMPEIDKETMGGSMRLGLRPTFFQNETEWSQIKKLYGDVSEVHERHRHRYEINPKMVDELENNGLIFVGKDDTGKRCEILELKNHPYYIATQYHPEYTSKVLDPSKPFLGLVAASAGILQDVIEGKYDLEAGENKFNF” as the sequence, how does the “soluble on expression in E. coli” value read?
Answer: Its value is “not soluble”.

Question: For “MGSDKIHHHHHHMFLDGEEGLIGYIIVTGTAGAGKSSLVGALADRITSLGANVATLNLDPAAEKLPYDPSVDARDYVSVAELMDKGLGPNGALVAAVDSLINHVLDIREEIDYYSPDYVVVDTPGQLELFAYRVGGPLVLRGIMGDYNGVNIFLIDSIFIDNAISLVSALLLASSVAVRLGLPQVNAVSKADMLLPEVREEVIPRLGEPGFLEFLLEKDKTYEGAGKALAEELARAIETTGFIGEVLQASVLEPETVTLLAAKAQQILAGGDDYKIYDITGQ”, which “soluble on expression in E. coli” value is on record?
Answer: Its value is “not soluble”.

Question: Which “soluble on expression in E. coli” value does the source give for “MSLLMIIDCHGHYTVLPKAHDEWREQQKAAFKAGQPAPPYPEISDDEIRETIEANQLRLIKERGADMTIFSPRASAMAPHVGDQSVAVPWAQACNNLIARVVDLFPETFAGVCMLPQSPEADMTSSIAELERCVNELGFIGCNLNPDPGGGHFKHPPLTDRFWYPFYEKMVELDVPAMIHVSGSCNPAMHATGAYYLAADTIAFMQLLQGNLFADFPTLRFIIPHGGGAVPYHWGRFRGLADMLKQPSLDTLLMNNVFFDTCVYHQPGINLLADVIDNKNILFGSEMVGAVRGIDPTTGHYFDDTKRYIDALDISDQERHAIFEGNTRRVFPRLDAKLKAREGHHHHHH” here?
Answer: Its value is “soluble”.

Question: With “DDFVSLGTSGWHARVVSTVSDPSEVRQFALPDGGILRIASVLSVGGTADWARSVLLPGVSAKEADALMLQRPRLATGLLSLPSIQGESFPVRSHSVGGCILGMRGNQDPLTLYTAVIEGICMTLAHDIKPGGILPATGGGARSVPWMRILASVTNRNIHVTVSEDAALHGAASLAAYATSAEYLPTLAARAIVEIEPEPEVVASFEPLIAKHLELFRFAAALSY” as the sequence, how does the “soluble on expression in E. coli” value read?
Answer: Its value is “not soluble”.

Question: With “ALRGTVTDFSGFDGEADAEVLEKAMEGLGTDEDSILNLLTARSNAQRQQIAEEFETLFGRDLVNDMKSELTGKFEKLIVALMKPSRLYDAYELKHALKGAGTDEKVLTEIIASRTPEELRAIKQAYEEEYGSNLEDDVVGDTSGYYQRMLVVLLQANRDPDTAIDDAQVELDAQALFQAGELKWGTDEEEFITILGTRSVSHLRRVFDKYMTISGFQIEETIDRETSGNLENLLLAVVKSIRSIPAYLAETLYYAMKGAGTDDHTLIRVIVSRSEIDLFNIRKEFRKNFATSLYSMIKGDTSGDYKKALLLLSGGEDD” as the sequence, how does the “soluble on expression in E. coli” value read?
Answer: The value was “soluble”.

Question: For “MSLFRFMKYKLFIDFEFNILDDNKNKPKEYNGAELISIGGILVDNEFNTIDNYYSLVKPKYNKILSNKCKNLTKLNQLDINNAPNLLYVMDDFYKWFCKFDDVTIYNWGDFDITGLLTSFRVYKYTGKCLELFNMMIDIQPFISQHITYNNRILSKQISLLNMKKIFSVEGDIKHNSLSDAVDLMNVCKCFFFNSPKNIDILEELYNKLPALKTEGHHHHHH”, which “soluble on expression in E. coli” value is on record?
Answer: Its value is “soluble”.

Question: For “MAHHHHHHMSDAQTVQTLVLWNGEWPYVKRGVSEVRAVAAGVIASANALVDVPAYLARARKYTAAADDFVTAQSARASSTLESHQWVVPAAGIALASVYVVVRSAPWGGMKMMRNGLVTAGALTAFMYPREIVHQIDRAMPFQAPASISEQKNES”, which “soluble on expression in E. coli” value is on record?
Answer: Its value is “not soluble”.

Question: For “MILVGNGRLISQDSLNPYMEDGCVVINDNLIEDIGTTEEMKAKYPVHEFIDAGKKIIMPGLINSHMHIYSSFARGMAVPGKPSENFLEILNNLWWRLDKQLTLEDTKYSAYATYIECIKNGVTTVYDHHASPNAIEGSLFTISDVAKDLGIRTCLCYEVSDRDGGNTIQQGINENVNFIKYAQKDDTDMIKGMFGLHAAFTLSDDTLNKCASEMAGLDTGYHVHVAEGLADLQYNVDKYGKRVLERFNDFGVLKEKTIAVHCIYISAEEISFLNKTNTFVVHNPESNMGNAVGCSPAIELLKRGVTVGLGTDGYTSDMFESLKVANIIHKHHLKDPRVGFEESQTMLFDNNRKIAKAYYKNDLGVLKKGAYADVIVVDYIPHTPLTENTIGGHTIFGMSGRSVDTTIINGKVLMKDRKLINIDEESILAKSRELSQNLWNRI”, which “soluble on expression in E. coli” value is on record?
Answer: The value was “not soluble”.

Question: With “MTNRLILFDFDETYYKHRTNQADIPYLKEMKSLLQNITAKNNVITAILTGSTIESVLQKMSKVNMSYKPQHIFSDLSSKMFTWNNCEYIESDEYKNEVLIEPFLLEDILDILKHVSSKHKVEFIPQRIFRENETLYNFYFYSSGDTHLDKTILEDLSQYSKTRDYTMTFNRCNPLAGDPENAYDINFTPKNAGKLYATKILMNKYGVPKELIIGFGDSGNDEAFLSYLDHAMIMSNSQDEEMKSKFKNTKYPYYKGIYTHVREFIEYENV” as the sequence, how does the “soluble on expression in E. coli” value read?
Answer: Its value is “not soluble”.

Question: For “GSHMSRILAVHASPRGERSQSRRLAEVFLAAYREAHPQARVARREVGRVPLPAVTEAFVAAAFHPQPEQRSLAMQADLALSDQLVGELFDSDLLVISTPMYNFSVPSGLKAWIDQIVRLGVTFDFVLDNGVAQYRPLLRGKRALIVTSRGGHGFGPGGENQAMNHADPWLRTALGFIGIDEVTVVAAEGEESGGRSFEDSCDEAEQRLLALARSA”, which “soluble on expression in E. coli” value is on record?
Answer: The value was “soluble”.

Question: For “MGHHHHHHSHMSQHGQSCLSLAGTIDCSVPDILLKSGVIGLAQWLTPVIPALWETEAGGSLEVRSSRPAWPTWRNPISTKNTKISQTWWRMPVVLATWEAEAGESVNLGGRGCSELRRCRCTPAWATRAKLHLRKNKNKNNGVTKT”, which “soluble on expression in E. coli” value is on record?
Answer: The value was “not soluble”.

Question: For “MAHHHHHHMTGSNGNDEPFKREMRTVKVPHHRFPALKKVWMDVYTPIVEQCKLEIRMNLRGRSVELRTCPATVEAAGNEGSKALLQKAEDFVKAVVAGFDVKDAVALLRMDDVYIEGFEVKDVRANLQGDNLSRCIGRMSGSHGKTKHTIENVTRTRIVIADTHICIMGTTQNIRVARDALCDLIRGSPATKVYTRVRAVMNRVNDTF”, which “soluble on expression in E. coli” value is on record?
Answer: Its value is “soluble”.

Question: For “MNEDAWNKETYSAWVKRFGTPDTAAKKISKDPSKILSVLHEKLGDVKGKKIMNIMGSNGSKAVALALLGADVTVVDFSKGNMDYALDLAKEADVKIDYILSDILKLPEDKLTADYDIVFAEMGIIHYFIDLKPFIKTINRLLKEGGLFVLRDFHPVSTKLITSRGSTAKVRKHKVTGDYFDTSLEEKDAAFSKYLIDNKEPEKVLLRKWTLGEIVTSVAEGGFKIKKLDEEPNLSCDNFDKGIPKSFTLTSEKLSLEHHHHHH”, which “soluble on expression in E. coli” value is on record?
Answer: The value was “soluble”.

Question: With “MGSDKIHHHHHHMNLSMISASVTMGELQKKLDTLSHNIANSNTTGYKRREASFSDLLFQQVNTNKATQYETGRLTPNGIRVGSGAKVSQTALRMEQGTLTTTDRALDFAIANPSSFFEIETVVDGNPVTRLTRDGAFYLTANPNNDNLLQLVTQNGDYLLDSAGNRINIPATFEEITLTDQGTLQVTMPNGANVQAAQLQLIQVMKPQLLEAVGGNMFQLPDLAALGFAENEVYAAVGAGGGAVVQGTLEGSNVDIGREMTDLIETQRNYQFNARSVSMADQMMGLVNGLRR” as the sequence, how does the “soluble on expression in E. coli” value read?
Answer: The value was “not soluble”.

Question: For “LVTISSTSAASLPTMPPSGYDQVRNGVPRGQVVNISYFSTATNSTRPARVYLPPGYSKDKKYSVLYLLHGIGGSENDWFEGGGRANVIADNLIAEGKIKPLIIVTPNTNAAGPGIADGYENFTKDLLNSLIPYIESNYSVYTDREHRAIAGLSMGGGQSFNIGLTNLDKFAYIGPISAAPNTYPNERLFPDGGKAAREKLKLLFIACGTNDSLIGFGQRVHEYCVANNINHVYWLIQGGGHDFNVWKPGLWNFLQMADEAGLTRDGNT”, which “soluble on expression in E. coli” value is on record?
Answer: Its value is “soluble”.
